Reference: article PMC3953389, “Dimerization of VirD2 Binding Protein Is Essential for Agrobacterium Induced Tumor Formation in Plants” (PLoS Pathogens, 2014)

Experiments:
[1] = target: T1, VBP (VirD2-binding protein) (Agrobacterium fabrum, UniProt Q7CW19); experiment: isothermal titration calorimetry
T1 construct: gene Atu4856; full-length VBP with 6His tag (pET32a, E. coli BL21(DE3)); homodimer 75 kDa; predicted NT domain aa 10-133, HEPN domain aa 159-279

[2] = target: C-terminal (HEPN) domain of VBP (Agrobacterium tumefaciens C58); experiment: AUC; sedimentation velocity, 1 mg/ml, 40,000 rpm, 24°C, absorbance at 280 nm, Sedfit
[3] = target: C-terminal (HEPN) domain of VBP (Agrobacterium tumefaciens C58); experiment: SEC; size-exclusion chromatography of the purified protein, apparent mass against molecular weight standards; 200 mM NaCl buffers (VBP: 20 mM Tris-HCl pH 8.0, 5% glycerol; HEPN: 30 mM CHES pH 9.0, 5% glycerol; NT: 30 mM Tris-HCl pH 7.5)
[4] = target: VirD2-binding protein (VBP), full-length, wild type, 6His-tagged (Agrobacterium tumefaciens C58); experiment: AUC; sedimentation velocity, 1 mg/ml, 40,000 rpm, 24°C, absorbance at 280 nm, Sedfit
[5] = target: VirD2-binding protein (VBP), full-length, wild type, 6His-tagged (Agrobacterium tumefaciens C58); experiment: SEC; size-exclusion chromatography of the purified protein, apparent mass against molecular weight standards; 200 mM NaCl buffers (VBP: 20 mM Tris-HCl pH 8.0, 5% glycerol; HEPN: 30 mM CHES pH 9.0, 5% glycerol; NT: 30 mM Tris-HCl pH 7.5)

Nc1ncnc2c1ncn2[C@@H]1O[C@H](COP(=O)(O)OP(=O)(O)NP(=O)(O)O)[C@@H](O)[C@H]1O [AMPPNP]
Kd [1]: 2000 nM

C-terminal (HEPN) domain of VBP (domain or fragment)
stoichiometry N [2]: 2 | stoichiometry N [3]: 2

VirD2-binding protein (VBP), full-length, wild type, 6His-tagged (natural protein)
stoichiometry N [4]: 2 | stoichiometry N [5]: 2
